Measured values published in US20100135951.

Target: purified cIAP1, Q13490
Sequence (Q13490 whole entry): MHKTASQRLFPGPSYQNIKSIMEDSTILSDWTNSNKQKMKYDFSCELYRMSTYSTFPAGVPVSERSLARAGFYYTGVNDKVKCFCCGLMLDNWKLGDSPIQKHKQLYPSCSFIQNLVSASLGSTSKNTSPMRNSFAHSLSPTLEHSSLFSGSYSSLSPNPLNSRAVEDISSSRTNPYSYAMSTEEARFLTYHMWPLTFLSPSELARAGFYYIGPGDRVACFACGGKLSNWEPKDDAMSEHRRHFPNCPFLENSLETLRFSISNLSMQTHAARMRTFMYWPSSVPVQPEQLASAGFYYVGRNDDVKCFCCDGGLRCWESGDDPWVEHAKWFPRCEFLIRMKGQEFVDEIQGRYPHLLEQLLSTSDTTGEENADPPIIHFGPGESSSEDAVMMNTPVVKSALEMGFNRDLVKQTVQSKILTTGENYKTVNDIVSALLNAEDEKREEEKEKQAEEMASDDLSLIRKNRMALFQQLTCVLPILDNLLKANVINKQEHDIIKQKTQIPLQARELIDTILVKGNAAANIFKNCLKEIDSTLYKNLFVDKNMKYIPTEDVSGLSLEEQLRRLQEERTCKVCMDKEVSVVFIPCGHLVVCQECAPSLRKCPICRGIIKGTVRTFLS

B1: recombinant active human caspase-8 (protein)
chain: SESQTLDKVYQMKSKPRGYCLIINNHNFAKAREKVPKLHSIRDRNGTHLDAGALTTTFEELHFEIKPHDDCTVEQIYEILKIYQLMDHSNMDCFICCILSHGDKGIIYGTDGQEAPIYELTSQFTGLKCPSLAGKPKVFFIQACQGDNYQKGIPVETDSEEQPYLEMDLSSPQTRYIPDEADFLLGMATVNNCVSYRNPAEGTWYIQSLCQSLRERCPRGDDILTILTEVNYEVSNKDDKKNMGKQMPQPTFTLRKKLVFPSD
caspase-8 protease activity (fluorogenic substrate Ac-IETD-AMC): purified cIAP1 also suppressed caspase-8 protease activity completely
